The results in this text go back to patent US20230227559A1 (INSTITUT PASTEUR, published 2023).

Changes are numbered by the printed parent chain. Numbers in names are those of the source.

In test [1] the target is T1, His-tagged ectodomains of hFcγRIIIA variant V158 (human, UniProt P08637 19-208).
T1 construct: also called human CD16A V158 ectodomains; hFcγRIIIA (V158 variant); not shown: His tag
The experiment in a line: SPR (ProteON), His-tagged hFcγRIIIA V158 ectodomains on chip, mAb injected. On the procedure: Surface Plasmon Resonance analysis. His-tagged ectodomains of hFcγRIIIA variant V158 were covalently immobilized on a His-tag capture sensor chip for a ProteON instrument (BioRad). A range of dilutions of anti-hFcγRIII mAbs were injected onto the chip. Background binding was measured on an empty HTE sensor chip channel and subtracted from the binding values observed on coated channels. The resulting sensorgrams were fitted using a “1:1 binding with mass transfer” model, and association (Kₒₙ), dissociation (Koff) constants and KD were calculated as the […] using BIAevaluation 4.1 software.
The affinity of the antibodies of the invention for the hFcγRIIIA (V158 variant) has been assessed by SPR as detailed above.

A further test has as its target T2, hFcgRIIA H131 (human, UniProt P12318).
T2 construct: on the cell surface of CHO transfectants, FLAG tagged; Named only on the sheet; one member of the group m10; also called hFcγRIIA H131; CD32A H131
T2 sequence (receptor chain, looked up): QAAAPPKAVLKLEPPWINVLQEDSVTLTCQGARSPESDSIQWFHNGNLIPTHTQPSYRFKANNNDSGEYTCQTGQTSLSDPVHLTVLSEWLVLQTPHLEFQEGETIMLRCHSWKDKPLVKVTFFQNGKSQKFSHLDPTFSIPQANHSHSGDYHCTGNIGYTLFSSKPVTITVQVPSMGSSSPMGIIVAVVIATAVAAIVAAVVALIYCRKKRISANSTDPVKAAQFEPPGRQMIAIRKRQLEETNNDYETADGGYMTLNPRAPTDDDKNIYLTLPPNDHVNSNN
The experiment in a line: FACS on CHO cells expressing FLAG tagged hFcγRIIA H131; mAb at 1 µg/ml, PE-labelled F(ab')2 donkey anti-human IgG at 5 µg/ml. The protocol:
(§1) Specificity. A collection of Chinese Hamster Ovarian (CHO) cells expressing FLAG tagged human FcγR (Bruhns P. et al, 2009) was used to analyze the specificity of the antibody against the hFcγR family. Cells were incubated on ice for 30 min with mAbs at 1 μg/ml, washed 3 time in PBS containing 0.5% BSA and 2 mM EDTA (MACS buffer) and then incubated on ice for 30 min with 5 μg/ml PE-labelled F(ab′)₂ Donkey Anti-Human IgG (Jackson ImmunoResearch). Data acquisition was performed on a MACSQuant flow cytometer (Miltenyi Biotec), and data analyzed using the Flowjo Software (FlowJo).
(§2) The specificity of the chimeric modified antibody 3G4NA towards the members of the hFcγR family has been assessed as exposed in the Material & Methods part, in CHO cells expressing FLAG tagged human FcγR. The cells were incubated with 3G4NA mAbs at 1 μg/ml, washed and then incubated on ice for 30 min with 5 μg/ml PE-labelled F(ab′)₂ Donkey Anti-Human IgG. The FACS results are disclosed on FIG. 1.

The target of test [2] is T3, hFcγRI (FLAG tagged, expressed on CHO cells) (human, UniProt P12314 16-374).
T3 construct: whole, on cells; also called CD64
T3 sequence (P12314 16-374): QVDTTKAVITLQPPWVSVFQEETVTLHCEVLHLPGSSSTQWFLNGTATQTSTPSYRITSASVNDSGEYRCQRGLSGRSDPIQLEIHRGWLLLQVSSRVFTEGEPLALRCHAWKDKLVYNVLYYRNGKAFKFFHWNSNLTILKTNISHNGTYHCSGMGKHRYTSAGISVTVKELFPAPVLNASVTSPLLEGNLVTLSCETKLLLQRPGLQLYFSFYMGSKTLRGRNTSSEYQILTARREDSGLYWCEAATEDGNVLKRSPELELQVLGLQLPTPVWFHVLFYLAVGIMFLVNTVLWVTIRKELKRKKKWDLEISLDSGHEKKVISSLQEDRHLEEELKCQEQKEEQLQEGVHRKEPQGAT
The experiment in a line: FACS on CHO cells expressing FLAG tagged hFcγRI; mAb at 1 µg/ml, PE-labelled F(ab')2 donkey anti-human IgG at 5 µg/ml. The protocol: as §1, §2

The target of another test is T4, hFcgRIIIA F176 (human, UniProt P08637).
T4 construct: on the cell surface of CHO transfectants, FLAG tagged; also called hFcγRIIIA F158; CD16A F158
T4 sequence (P08637 17-254 limits assumed): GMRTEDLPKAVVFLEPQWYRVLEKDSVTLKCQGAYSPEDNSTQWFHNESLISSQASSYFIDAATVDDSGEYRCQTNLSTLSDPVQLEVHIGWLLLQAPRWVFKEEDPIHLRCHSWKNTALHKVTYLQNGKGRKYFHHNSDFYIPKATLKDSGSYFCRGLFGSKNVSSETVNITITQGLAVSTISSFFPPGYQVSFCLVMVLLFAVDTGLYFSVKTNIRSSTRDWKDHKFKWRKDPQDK
Briefly: FACS on CHO cells expressing FLAG tagged hFcγRIIIA F176; mAb at 1 µg/ml, PE-labelled F(ab')2 donkey anti-human IgG at 5 µg/ml. The protocol:
as §1, §2

The target of a further test is T5, hFcgRIIA R131 (human, UniProt P12318).
T5 construct: on the cell surface of CHO transfectants, FLAG tagged; Named only on the sheet; one member of the group m10; also called hFcγRIIA R131; CD32A R131
T5 sequence (receptor chain, looked up): T2 sequence (receptor chain, looked up) with H134R
The experiment in a line: FACS on CHO cells expressing FLAG tagged hFcγRIIA R131; mAb at 1 µg/ml, PE-labelled F(ab')2 donkey anti-human IgG at 5 µg/ml. The protocol:
as §1, §2

Another test has as its target T6, hFcgRIIB (human, UniProt P31994).
T6 construct: on the cell surface of CHO transfectants, FLAG tagged; Named only on the sheet; one member of the group m10; also called hFcγRIIB; CD32B
T6 sequence (receptor chain, looked up): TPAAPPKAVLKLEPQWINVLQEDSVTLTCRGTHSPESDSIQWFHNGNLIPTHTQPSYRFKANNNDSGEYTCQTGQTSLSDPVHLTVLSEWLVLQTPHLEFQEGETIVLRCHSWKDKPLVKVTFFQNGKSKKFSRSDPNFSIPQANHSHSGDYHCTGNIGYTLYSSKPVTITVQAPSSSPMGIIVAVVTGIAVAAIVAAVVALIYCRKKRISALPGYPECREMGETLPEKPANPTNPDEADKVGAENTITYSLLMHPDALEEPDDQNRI
Briefly: FACS on CHO cells expressing FLAG tagged hFcγRIIB; mAb at 1 µg/ml, PE-labelled F(ab')2 donkey anti-human IgG at 5 µg/ml. On the procedure:
as §1, §2

Test [3] has as its target T7, hFcγRIIIA V158 (FLAG tagged, expressed on CHO cells) (human, UniProt P08637 17-254).
T7 construct: whole, on cells; also called CD16A V158
The experiment in a line: FACS on CHO cells expressing FLAG tagged hFcγRIIIA V176 (V158 in the text); mAb at 1 µg/ml, PE-labelled F(ab')2 donkey anti-human IgG at 5 µg/ml. On the procedure: as §1, §2

The term Kd denotes the equilibrium constant for the complex coming apart. As a reminder, the koff is the rate constant with which the complex falls apart. The term kon denotes the rate constant with which the complex forms.

T1 sequence (P08637 other isoform, or with tags, fused parts or gaps mutant): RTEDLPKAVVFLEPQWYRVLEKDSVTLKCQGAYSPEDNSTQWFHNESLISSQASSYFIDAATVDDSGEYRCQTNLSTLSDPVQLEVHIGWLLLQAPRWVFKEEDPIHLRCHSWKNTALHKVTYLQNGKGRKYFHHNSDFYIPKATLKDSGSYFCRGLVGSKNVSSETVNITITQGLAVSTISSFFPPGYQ
T7 sequence (P08637 17-254 F176V limits assumed): as the sequence (P08637 17-254 limits assumed) above, with F160V counted along it

B1: Chimeric 3G4 hIgG1 (chimeric mouse-human IgG1 kappa anti-hFcγRIII mAb, clone 3G4) (antibody)
heavy: not shown
light: DIVLTQSPSSISASLGDRITITCQATQDIIKNLNWYQQKPGKPPSFLIYYATEVAEGVPSRFSGSGSGSDYSLTISNLESEDFADYYCLQFYEFPYTFGGGTKLEIKRTVAAPSVFIFPPSDEQLKSGTASVVCLLNNFYPREAKVQWKVDNALQSGNSQESVTEQDSKDSTYSLSSTLTLSKADYEKHKVYACEVTHQGLSSPVTKSFNRGEC
notes: also called mouse-human 3G4; 3G4 mouse-human chimeric monoclonal antibody
B1: in test [1], the affinity, expressed as Kd, was 7.9 nM; the koff was determined as 0.001 s⁻¹; the kon was 130000 M⁻¹ s⁻¹.

B2: Chimeric 3G4 hIgG1 N297A format (chimeric modified mouse-human antibody 3G4NA) (antibody)
heavy: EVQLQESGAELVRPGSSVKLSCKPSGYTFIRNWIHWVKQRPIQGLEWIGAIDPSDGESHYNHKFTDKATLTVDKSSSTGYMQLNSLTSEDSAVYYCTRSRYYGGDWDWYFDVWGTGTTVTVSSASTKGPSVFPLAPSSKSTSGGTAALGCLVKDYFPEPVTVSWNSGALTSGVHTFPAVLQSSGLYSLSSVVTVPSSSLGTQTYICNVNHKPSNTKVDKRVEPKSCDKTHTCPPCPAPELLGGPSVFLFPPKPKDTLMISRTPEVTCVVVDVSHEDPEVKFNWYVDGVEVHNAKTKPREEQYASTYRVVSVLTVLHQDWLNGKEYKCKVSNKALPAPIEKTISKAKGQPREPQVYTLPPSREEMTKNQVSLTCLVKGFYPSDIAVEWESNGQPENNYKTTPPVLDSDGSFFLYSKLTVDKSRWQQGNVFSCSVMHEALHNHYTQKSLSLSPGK
light: B1 light
notes: also called 3G4N297A; mAb 3G4 N297A
The molecule B2 gave a dissociation constant (Kd) in test [1] of 16 nM. In test [1], the off-rate (koff) came to 0.00034 s⁻¹. In test [1], the kon is 19000 M⁻¹ s⁻¹. In addition, the binding result was “no binding (tested: 1 µg/ml)” with hFcgRIIA H131; “binds” in test [2]; “binds” with hFcgRIIIA F176; “no binding (tested: 1 µg/ml)” in the test with hFcgRIIA R131; “no binding (tested: 1 µg/ml)” with hFcgRIIB; “binds” in test [3].
